According to US20070042954A1:

Biological target: bact sCRFR2α (mouse soluble CRF receptor type 2α, amino acids 20-143, purified from E. coli) (mouse)
Test: radioreceptor assay, displacement of [125I-DTyr0]-astressin from purified sCRFR2α

- Ki: 10 nM
Substance: Astressin (peptide)
